Experimental findings from article PMC12134178 are described below.

The target of the test is mCerulean3-BaxΔCTS. Briefly: FRET or BRET; quantitative fast FLIM-FRET (qF3) in live HCT116 DKO cells stably expressing the donor ^CBaxΔCTS (1 to 3 µM) and transiently the Venus acceptor (0 to 50 µM); 10 µM Q-VD-OPH; fit to a Hill equation with h = 1; apparent Kd. (In general: BRET reads energy transfer from a luciferase to a nearby fluorophore.)

Consider “Venus-tBid(Nes2-BH3 C-ter) chimera (from UniProt P70444 1-81; P70444 101-195)”, for which the Kd was determined as 17 µM. In the case of Venus-tBid (domain or fragment), the Kd came to 16.3 µM.
